{"source": "patent US9549967B2", "about": "“Regulation of sodium channels by PLUNC proteins” (The University of North Carolina at Chapel Hill, priority 2009, dated 2017)", "molecules": {"B1": {"name": "SPLUNC1: human SPLUNC1, 256 amino acid secreted PLUNC protein (SEQ ID NO:1); rSPLUNC1 = V5/6His-tagged protein purified from HEK293 media (protein, listed as Homo sapiens)", "chain": "MFQTGGLIVFYGLLAQTMAQFGGLPVPLDQTLPLNVNPALPLSPTGLAGSLTNALSNGLLSGGLLGILENLPLLDILKPGGGTSGGLLGGLLGKVTSVIPGLNNIIDIKVTDPQLLELGLVQSPDGHRLYVTIPLGIKLQVNTPLVGASLLRLAVKLDITAEILAVRDKQERIHLVLGDCTHSPGSLQISLLDGLGPLPIQGLLDSLTGILNKVLPELVQGNVCPLVNEVLRGLDITLVHDIVNMLIHGLQFVIKV", "modifications": "V5/6His tag", "notes": "rSPLUNC1 = V5/6His-tagged protein purified from HEK293 media"}}, "key": {"ENaC": {"target": "T1, ENaC (Homo sapiens, UniProt P37088+P51168+P51170)", "T1 construct": "endogenous in cells; host or cells: primary human bronchial epithelial cultures", "T1 sequence (P37088 1-669)": "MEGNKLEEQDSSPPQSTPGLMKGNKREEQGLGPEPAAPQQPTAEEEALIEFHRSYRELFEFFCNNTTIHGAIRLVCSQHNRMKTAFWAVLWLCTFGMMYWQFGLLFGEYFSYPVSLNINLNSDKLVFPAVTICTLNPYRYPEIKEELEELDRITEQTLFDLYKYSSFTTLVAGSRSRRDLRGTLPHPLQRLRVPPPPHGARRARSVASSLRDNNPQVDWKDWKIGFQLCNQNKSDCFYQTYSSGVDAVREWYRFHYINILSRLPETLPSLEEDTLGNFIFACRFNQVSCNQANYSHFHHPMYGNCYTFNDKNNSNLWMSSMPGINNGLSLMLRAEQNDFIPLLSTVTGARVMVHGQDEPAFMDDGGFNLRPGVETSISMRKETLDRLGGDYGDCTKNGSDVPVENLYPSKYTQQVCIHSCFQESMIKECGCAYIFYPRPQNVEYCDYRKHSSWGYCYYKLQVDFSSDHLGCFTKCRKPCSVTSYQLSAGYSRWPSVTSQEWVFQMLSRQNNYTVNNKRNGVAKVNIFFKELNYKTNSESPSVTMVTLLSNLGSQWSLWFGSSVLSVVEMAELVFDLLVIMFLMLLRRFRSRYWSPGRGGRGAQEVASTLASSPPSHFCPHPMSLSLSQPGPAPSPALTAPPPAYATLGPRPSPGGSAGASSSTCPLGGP", "T1 sequence (P51168 1-640)": "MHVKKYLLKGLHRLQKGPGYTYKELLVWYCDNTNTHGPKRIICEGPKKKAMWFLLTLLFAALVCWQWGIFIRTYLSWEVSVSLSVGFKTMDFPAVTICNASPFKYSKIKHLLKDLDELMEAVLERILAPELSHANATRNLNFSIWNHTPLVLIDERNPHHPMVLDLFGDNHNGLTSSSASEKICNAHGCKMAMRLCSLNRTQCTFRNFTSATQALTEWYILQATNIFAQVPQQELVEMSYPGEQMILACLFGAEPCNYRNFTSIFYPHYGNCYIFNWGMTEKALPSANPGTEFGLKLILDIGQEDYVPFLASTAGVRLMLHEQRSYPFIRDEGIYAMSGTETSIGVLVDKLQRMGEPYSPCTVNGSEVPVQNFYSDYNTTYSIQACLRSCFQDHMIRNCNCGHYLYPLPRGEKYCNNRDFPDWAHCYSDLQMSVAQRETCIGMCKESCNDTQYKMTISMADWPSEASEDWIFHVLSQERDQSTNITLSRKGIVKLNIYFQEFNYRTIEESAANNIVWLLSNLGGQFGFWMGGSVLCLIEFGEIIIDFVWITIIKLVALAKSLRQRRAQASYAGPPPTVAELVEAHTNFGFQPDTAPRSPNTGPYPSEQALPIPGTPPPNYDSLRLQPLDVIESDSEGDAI", "T1 sequence (P51170 1-649)": "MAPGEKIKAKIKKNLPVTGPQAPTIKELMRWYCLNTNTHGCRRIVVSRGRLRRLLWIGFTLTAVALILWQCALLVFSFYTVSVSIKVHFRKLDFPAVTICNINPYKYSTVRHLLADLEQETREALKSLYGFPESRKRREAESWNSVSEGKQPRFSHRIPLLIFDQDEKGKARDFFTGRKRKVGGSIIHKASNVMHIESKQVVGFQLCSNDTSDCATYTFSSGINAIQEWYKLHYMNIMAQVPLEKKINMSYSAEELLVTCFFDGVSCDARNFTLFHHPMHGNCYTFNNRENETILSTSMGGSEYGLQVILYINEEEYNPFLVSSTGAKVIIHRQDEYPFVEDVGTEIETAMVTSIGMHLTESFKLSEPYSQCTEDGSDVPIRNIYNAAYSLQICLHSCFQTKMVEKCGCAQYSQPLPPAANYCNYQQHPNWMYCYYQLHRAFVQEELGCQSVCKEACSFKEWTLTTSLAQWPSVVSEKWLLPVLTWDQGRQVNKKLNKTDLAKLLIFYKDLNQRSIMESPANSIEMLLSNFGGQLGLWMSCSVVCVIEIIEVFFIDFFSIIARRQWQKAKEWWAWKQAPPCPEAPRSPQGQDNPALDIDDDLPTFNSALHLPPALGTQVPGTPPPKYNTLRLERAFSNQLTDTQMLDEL", "experiment": "Transepithelial electrical resistance of human bronchial epithelial cultures (EVOM)", "type": "cell-based", "details": "washed cultures; 50 ng/ml SPLUNC1 for 30 min or amiloride; effects not additive", "source_text": "Tissue procurement and cell culture: Cells were harvested by enzymatic digestion from human bronchial tissue as previously described under a protocol approved by the UNC School of Medicine IRB (Tarran et al., J. Gen. Physiol. 127:591 (2006)). Human excess donor lungs and excised recipient lungs were obtained at the time of lung transplantation from portions of main stem or […] bronchi and cells were harvested by enzymatic digestion. All preparations were maintained at an air-liquid interface in a modified bronchial epithelial medium and used 2-5 weeks after seeding on 12 mm T-Clear inserts (Corning Costar) coated with human placental type VI collagen (Sigma). Phosphate buffered saline (PBS) was used for washing human bronchial epithelial culture mucosal surfaces.\nMicroelectrode studies. A single-barreled potential difference-sensing electrode was placed in the airway surface liquid by micromanipulator and used in conjunction with a macroelectrode in the serosal solution to measure transepithelial voltage using a voltmeter (World Precision Instruments). […] Transepithelial resistance was routinely measured using the EVOM system (WPI) as previously described (Tarran et al., J. Gen. Physiol. 127:591 (2006))."}, "[1]": {"tested_on": "human bronchial epithelial cultures", "experiment": "Airway surface liquid height by confocal microscopy in human bronchial epithelial cultures", "type": "cell-based", "details": "SPLUNC1 knockdown cultures; 50 ng/ml rSPLUNC1 added to airway surface liquid", "source_text": "shRNA-induced knockdown of SPLUNC1: Our strategy was to select shRNA sequences from Dharmacon that targeted SPLUNC1 effectively by using transient siRNA in an immortalized human airway epithelial cell line (denoted AALEB) (Lundberg et al., Oncogene 21:4577 (2002)). […] Passage-1 airway cells surviving one week of selection were then trypsinized and plated down on 12 mm T-clear inserts and differentiated under air liquid interface conditions. At the time of the functional assays, we measured airway surface liquid SPLUNC1 protein levels by Western blot to verify stable knockdown. An anti-luciferase shRNA-expressing adenovirus was infected separately as a control.\nConfocal microscopy: To label airway surface liquid, Ringer containing Texas Red-dextran (2 mg/ml; Invitrogen) was added to human bronchial epithelial culture mucosal surfaces. Perfluorocarbon was added mucosally to prevent evaporation of the airway surface liquid and the culture placed in a chamber containing 100 μl Ringer on the stage of a Leica SP5 confocal microscope with a 63× glycerol immersion objective. 5 points per culture were scanned and an average airway surface liquid height determined. For confocal microscopy human bronchial epithelial cultures were bathed serosally in a modified Ringer solution containing (mM): 116 NaCl, 10 NaHCO3, 5.1 KCl, 1.2 CaCl2, 1.2 MgCl2, 20 TES, 10 glucose, pH 7.4). […]"}}, "data": [{"molecule": "B1", "values": [{"measurement": "increase of the transepithelial electrical resistance", "setting": "ENaC", "value": "~33", "unit": "%"}, {"measurement": "regulation of airway surface liquid height", "setting": "[1]", "value": "restored"}]}]}
